The record followed here is patent publication US20250376517A1 (AKESO BIOPHARMA, published 2025).

Assay [1] has as its target T1, human Claudin18.2 (CLDN18.2) on the surface of CHO-K1-CLDN18.2 cells (human, UniProt P56856-2 1-261).
T1 construct: whole, on cells; Membrane protein overexpressed on CHO-K1 cells; also called hCLDN18.2; antigen on the surface of CHO-K1-CLDN18.2 cell
Kind of assay: cell ELISA on CHO-K1-CLDN18.2 cells. The method, then:
(§1) CHO-K1-CLDN18.2 cells (Chinese hamster ovary cells CHO-K1 overexpressing CLDN18.2, CHO-K1 purchased from Cell Resource Center, Institute of Basic Medical Sciences, Chinese Academy of Medical Sciences, Cat. No.: 3111C0001CCC000004) were plated on a cell plate (Corning, 3599) at 2×10⁴ cells/well and cultured overnight at 5% CO₂ and 37° C., and then the cell plate in which the cells were incubated was washed once with PBST and blocked for 2 h at 37° C. using PBST containing 1% BSA as a blocking solution. After blocking, the plate was washed 3 times with PBST. The ELISA plate containing the test antibodies was incubated at 37° C. for 30 min and then washed 3 times with PBST. […] Then, the plate was incubated at 37° C. for 30 min. After incubation, the plate was washed 4 times with PBST, TMB (Neogen, 308177) was added for color developing in the dark for 5 min, and then a stop solution was added to terminate the chromogenic reaction. The ELISA plate was put into a microplate reader immediately, and the OD value of each well in the ELISA plate was read at 450 nm. The data were analyzed and processed by SoftMax Pro 6.2.1.
For orientation: In an ELISA, binding on a coated surface is turned into a signal by an enzyme label.

Assay [2] deals with T1, human Claudin18.2 (CLDN18.2) on the …. The assay can be described thus: flow cytometry (FACS) on CHO-K1-CLDN18.2 cells.
Assay [3] has the same target. Kind of assay: cell ELISA on CHO-K1-CLDN18.2 cells. Here is the method:
as §1
The source holds these as a separate data set.

Assay [4] shares this target. The assay can be described thus: cell ELISA on CHO-K1-CLDN18.2 cells; antibody 0 µg/mL (background, no antibody). Here is the method: as §1
Assay [5] has the same target. The assay can be described thus: cell ELISA on CHO-K1-CLDN18.2 cells; antibody 0.111 µg/mL. Here is the method: as §1
Assay [6] has the same target. The assay can be described thus: cell ELISA on CHO-K1-CLDN18.2 cells; antibody 0.333 µg/mL. Here is the method:
as §1

For assay [7] the target is unchanged. The assay can be described thus: cell ELISA on CHO-K1-CLDN18.2 cells; antibody 1.000 µg/mL. Here is the method:
as §1

Assay [8] has the same target. Kind of assay: cell ELISA on CHO-K1-CLDN18.2 cells; antibody 3 µg/mL. Here is the method: as §1
Assay [9] shares this target. Kind of assay: cell ELISA on CHO-K1-CLDN18.2 cells. The method, then:
as §1
This is another data set of the same source.

Assay [10] has the same target. The assay can be described thus: flow cytometry (FACS) on CHO-K1-CLDN18.2 cells. The method, then: CHO-K1-CLDN18.2 cells in logarithmic growth phase were collected and transferred to a 1.5 mL EP tube at 3×10⁵ cells/well, and then 1% PBSA was added. The mixture was centrifuged at 1000× g for 5 min, followed by removal of the supernatant. […] 1000 μL of 1% PBSA was added, and the mixture was centrifuged at 1000×g for 5 min, followed by removal of the supernatant and washing twice with 1% PBSA. […] The mixture was resuspended and well mixed, and incubated on ice for 40 min in the dark. 1000 μL of 1% PBSA was added, and the mixture was centrifuged at 1000×g for 5 min, followed by removal of the supernatant and washing twice with 1% PBSA. 200 μL of 1% PBSA was added to resuspend the cell pellets, and the mixture was transferred to a flow cytometry tube for FACSCalibur assay.
This is another data set of the same source. In general terms: In flow cytometry, cells or beads pass a laser one at a time.

Assay [11] shares this target. Kind of assay: cell ELISA on CHO-K1-CLDN18.2 cells; antibody 0.037 µg/mL. The method, then:
as §1

For assay [12] the target is unchanged. Kind of assay: cell ELISA on CHO-K1-CLDN18.2 cells; antibody 0.004 µg/mL. Here is the method: as §1
Assay [13] shares this target. The assay can be described thus: cell ELISA on CHO-K1-CLDN18.2 cells; antibody 0.012 µg/mL. Here is the method: as §1

B1: humanized anti-human CLDN18.2 antibody 8C5.1H2L2 (antibody, human IgG1, kappa, V domains shown)
VH: EVQLVESGGGLVKPGGSLRLSCAASGFTFSNSAVSWVRQAPGKGLEWVSTITSGVSYTYYADSVKGRFTISRDNAKNSLYLQMNSLRAEDTAVYYCTRQFKGNALDYWGQGTSVTVSS
VL: DIVMTQSPSSLSVSPGERVTISCKSSQSLLNSGNQKNYLTWYQQKPGQPPKLLIYWASTRESGVPDRFSGSGSGTDFTLTISSFQAEDVAVYYCQNDYFYPLTFGAGTKLELKR
By EC50 is commonly meant the concentration needed to bring the measured effect to its halfway point. For B1, the EC50 in [1] amounted to 0.094 nM; in assay [2] it was 0.234 µg/mL.

B2: humanized anti-human CLDN18.2 antibody 8C5.1H2L1 (antibody, human IgG1, kappa, V domains shown)
VH: EVQLVESGGGLVKPGGSLRLSCAASGFTFSNSAVSWVRQAPGKGLEWVSTITSGVSYTYYADSVKGRFTISRDNAKNSLYLQMNSLRAEDTAVYYCTRQFKGNALDYWGQGTSVTVSS
VL: DIVMTQSPSSLSVSPGERVTMSCKSSQSLLNSGNQKNYLTWYQQKPGQPPKLLIYWASTRESGVPDRFSGSGSGTDFTLTINSFQAEDVAVYYCQNDYFYPLTFGAGTKLELKR
Regarding B2, the EC50 was determined as 0.091 nM in assay [1] and 0.267 µg/mL in assay [2].

B3: humanized anti-human CLDN18.2 antibody 8C5.1H3L3 (antibody, human IgG1, kappa, V domains shown)
VH: EVQLVESGGGLVKPGGSLRLSCAASGFTFSNSAVSWVRQAPGKGLEWVSSITSGVSYTYYADSVKGRFTISRDNAKNSLYLQMNSLRAEDTAVYYCTRQFKGNALDYWGQGTSVTVSS
VL: DIVMTQSPSSLSVSPGERVTISCKSSQSLLNSGNQKNYLAWYQQKPGQPPKLLIYWASTRESGVPDRFSGSGSGTDFTLTISSLQAEDVAVYYCQNDYFYPLTFGAGTKLELKR
For B3, the EC50 in [2] worked out at 0.281 µg/mL.

B4: humanized anti-human CLDN18.2 antibody 8C5.1H1L2 (antibody, human IgG1, kappa, V domains shown)
VH: EVQLVESGGGLVKPGGSLRLSCAASGFTFSNSAVSWVRQAPGKRLEWVATITSGVSYTYYLDSVRGRFTISRDNAKNSLYLQMNSLRAEDTAVYYCTRQFKGNALDYWGQGTSVTVSS
VL: DIVMTQSPSSLSVSPGERVTISCKSSQSLLNSGNQKNYLTWYQQKPGQPPKLLIYWASTRESGVPDRFSGSGSGTDFTLTISSFQAEDVAVYYCQNDYFYPLTFGAGTKLELKR
Turning to B4, the figures for the concentration for a half-maximal effect (EC50) in assay [1] and in [2] were 0.108 nM and 0.242 µg/mL, respectively.

B5: humanized anti-human CLDN18.2 antibody 8C5.1H3L2 (antibody, human IgG1, kappa, V domains shown)
VH: EVQLVESGGGLVKPGGSLRLSCAASGFTFSNSAVSWVRQAPGKGLEWVSSITSGVSYTYYADSVKGRFTISRDNAKNSLYLQMNSLRAEDTAVYYCTRQFKGNALDYWGQGTSVTVSS
VL: DIVMTQSPSSLSVSPGERVTISCKSSQSLLNSGNQKNYLTWYQQKPGQPPKLLIYWASTRESGVPDRFSGSGSGTDFTLTISSFQAEDVAVYYCQNDYFYPLTFGAGTKLELKR
Take B5: the values for the EC50 in [2] and in assay [3] were 0.213 µg/mL and 0.103 nM, respectively.

B6: humanized anti-human CLDN18.2 antibody 8C5.1H2L3 (antibody, human IgG1, kappa, V domains shown)
VH: EVQLVESGGGLVKPGGSLRLSCAASGFTFSNSAVSWVRQAPGKGLEWVSTITSGVSYTYYADSVKGRFTISRDNAKNSLYLQMNSLRAEDTAVYYCTRQFKGNALDYWGQGTSVTVSS
VL: DIVMTQSPSSLSVSPGERVTISCKSSQSLLNSGNQKNYLAWYQQKPGQPPKLLIYWASTRESGVPDRFSGSGSGTDFTLTISSLQAEDVAVYYCQNDYFYPLTFGAGTKLELKR
Regarding B6, the EC50 came out at 0.243 µg/mL in [2] and 0.081 nM in assay [3].

B7: humanized anti-human CLDN18.2 antibody 8C5.1H1L1 (antibody, human IgG1, kappa, V domains shown)
VH: EVQLVESGGGLVKPGGSLRLSCAASGFTFSNSAVSWVRQAPGKRLEWVATITSGVSYTYYLDSVRGRFTISRDNAKNSLYLQMNSLRAEDTAVYYCTRQFKGNALDYWGQGTSVTVSS
VL: DIVMTQSPSSLSVSPGERVTMSCKSSQSLLNSGNQKNYLTWYQQKPGQPPKLLIYWASTRESGVPDRFSGSGSGTDFTLTINSFQAEDVAVYYCQNDYFYPLTFGAGTKLELKR
B7: the EC50 in assay [1] is 0.054 nM; in [2] it was 0.216 µg/mL.

B8: anti-CLDN18.2 antibody 8C5.1 (antibody, V domains shown)
VH: EVQLVESGGGLVKPGGSLKLSCAASGFTFSNSAVSWVRQTPEKRLEWVATITSGVSYTYYLDSVRGRFTISRDNAKNTLYLQMSSLRSEDTAMYYCTRQFKGNALDYWGQGTSVTVSS
VL: DIVMTQSPSSLTVTAGEKVTMSCKSSQSLLNSGNQKNYLTWYQQKPGQPPKLLIYWASTRESGVPDRFTGSGSGTDFTLTINNFQAEDLAVYYCQNDYFYPLTFGAGTKLELK
notes: Murine monoclonal antibody purified from hybridoma LT020 supernatant on protein A; also called monoclonal antibody secreted by hybridoma cell line LT020
On to B8, for which the “OD (450 nm)” value in [4] was 0.086 OD; in assay [5] it was 1.42 OD; in assay [6] it was 1.63 OD; in assay [7], 1.79 OD; in assay [8], 1.61 OD; in assay [11], 1.07 OD. The figures for the “OD (450 nm)” value in assay [12] and in [13] were 0.344 OD and 0.697 OD, respectively. The EC50 in assay [9] is 0.153 nM; in assay [10] it was 0.214 µg/mL.

B9: positive control antibody IMAB362 (antibody, human IgG1, kappa, V domains shown)
VH: QVQLQQPGAELVRPGASVKLSCKASGYTFTSYWINWVKQRPGQGLEWIGNIYPSDSYTNYNQKFKDKATLTVDKSSSTAYMQLSSPTSEDSAVYYCTRSWRGNSFDYWGQGTTLTVSS
VL: DIVMTQSPSSLTVTAGEKVTMSCKSSQSLLNSGNQKNYLTWYQQKPGQPPKLLIYWASTRESGVPDRFTGSGSGTDFTLTISSVQAEDLAVYYCQNDYSYPFTFGSGTKLEIKR
notes: Human-murine chimeric antibody; produced by Akeso Biopharma Inc; also called Claudiximab; zolbetuximab
For B9, the concentration giving a half-maximal response (EC50) in assay [1] worked out at 0.153 nM; in assay [9], 0.201 nM; in assay [2] it was 0.358 µg/mL; in assay [10], 0.687 µg/mL; in [3], 0.182 nM.
